Assay results from US20240270846A1 (published 2024).
Where a chain is given by its changes, count along the chain named. In names and notes the source's numbering stands.

B1: CE115HA000 D101A one-arm antibody (antibody, human IgG1, kappa, L234A L235A, N297A, name in Kabat numbering)
heavy: QVQLVESGGGVVQPGRSLRLSCAASGFTFSNAWMHWVRQAPGKGLEWVAQIKAKSNNYATYYAESVKGRFTISRDDSKNSLYLQMNSLKTEDTAVYYCRYVHYGAYYGVAAWGQGTTVTVSSASTKGPSVFPLAPSSKSTSGGTAALGCLVKDYFPEPVTVSWNSGALTSGVHTFPAVLQSSGLYSLSSVVTVPSSSLGTQTYICNVNHKPSNTKVDKKVEPKSCDKTHTCPPCPAPEAAGGPSVFLFPPKPKDTLMISRTPEVTCVVVDVSHEDPEVKFNWYVDGVEVHNAKTKPREEQYASTYRVVSVLTVLHQDWLNGKEYKCKVSNKALPAPIEKTISKAKGQPREPQVYTLPPSRCELTKNQVSLSCAVKGFYPSDIAVEWESNGQPENNYKTTPPVLDSDGSFFLVSKLTVDKSRWQQGNVFSCSVMHEALHNHYTQKSLSLSPDYKDDDDK
chain: EPKSSDKTHTCPPCPAPELLGGPSVFLFPPKPKDTLMISRTPEVTCVVVDVSHEDPEVKFNWYVDGVEVHNAKTKPREEQYNSTYRVVSVLTVLHQDWLNGKEYKCKVSNKALPAPIEKTISKAKGQPREPQVCTLPPSRDELTKNQVSLWCLVKGFYPSDIAVEWESNGQPENNYKTTPPVLDSDGSFFLYSKLTVDKSRWQQGNVFSCSVMHEALHNRYTQKSLSLSP
light: DIVMTQSPLSLPVTPGEPASISCRSSQSLVHSNRNTYLHWYQQKPGQAPRLLIYKVSNRFSGVPDRFSGSGSGTDFTLKISRVEAEDVGVYYCGQGTQVPYTFGQGTKLEIKRTVAAPSVFIFPPSDEQLKSGTASVVCLLNNFYPREAKVQWKVDNALQSGNSQESVTEQDSKDSTYSLSSTLTLSKADYEKHKVYACEVTHQGLSSPVTKSFNRGEC
notes: one-arm antibody (one Fab)
B2: CE115HA000 A56L one-arm antibody (antibody, human IgG1, kappa, L234A L235A, N297A, name in Kabat numbering)
heavy: B1 heavy with A59L, A110D
chain: B1 chain
light: B1 light
notes: one-arm antibody (one Fab)
B3: CE115HA000 A56N one-arm antibody (antibody, human IgG1, kappa, L234A L235A, N297A, name in Kabat numbering)
heavy: B1 heavy with A59N, A110D
chain: B1 chain
light: B1 light
notes: one-arm antibody (one Fab)
B4: CE115HA000 A56Q one-arm antibody (antibody, human IgG1, kappa, L234A L235A, N297A, name in Kabat numbering)
heavy: B1 heavy with A59Q, A110D
chain: B1 chain
light: B1 light
notes: one-arm antibody (one Fab)
B5: CE115HA000 A56Y one-arm antibody (antibody, human IgG1, kappa, L234A L235A, N297A, name in Kabat numbering)
heavy: B1 heavy with A59Y, A110D
chain: B1 chain
light: B1 light
notes: one-arm antibody (one Fab)
B6: CE115HA000 A99D one-arm antibody (antibody, human IgG1, kappa, L234A L235A, N297A, name in Kabat numbering)
heavy: B1 heavy with A105D, A110D
chain: B1 chain
light: B1 light
notes: one-arm antibody (one Fab)
B7: CE115HA000 A99F one-arm antibody (antibody, human IgG1, kappa, L234A L235A, N297A, name in Kabat numbering)
heavy: B1 heavy with A105F, A110D
chain: B1 chain
light: B1 light
notes: one-arm antibody (one Fab)
B8: CE115HA000 A99K one-arm antibody (antibody, human IgG1, kappa, L234A L235A, N297A, name in Kabat numbering)
heavy: B1 heavy with A105K, A110D
chain: B1 chain
light: B1 light
notes: one-arm antibody (one Fab)
B9: CE115HA000 A99L one-arm antibody (antibody, human IgG1, kappa, L234A L235A, N297A, name in Kabat numbering)
heavy: B1 heavy with A105L, A110D
chain: B1 chain
light: B1 light
notes: one-arm antibody (one Fab)
B10: CE115HA000 A99Q one-arm antibody (antibody, human IgG1, kappa, L234A L235A, N297A, name in Kabat numbering)
heavy: B1 heavy with A105Q, A110D
chain: B1 chain
light: B1 light
notes: one-arm antibody (one Fab)
B11: CE115HA000 A99S one-arm antibody (antibody, human IgG1, kappa, L234A L235A, N297A, name in Kabat numbering)
heavy: B1 heavy with A105S, A110D
chain: B1 chain
light: B1 light
notes: one-arm antibody (one Fab)
B12: CE115HA000 A99T one-arm antibody (antibody, human IgG1, kappa, L234A L235A, N297A, name in Kabat numbering)
heavy: B1 heavy with A105T, A110D
chain: B1 chain
light: B1 light
notes: one-arm antibody (one Fab)
B13: CE115HA000 A99Y one-arm antibody (antibody, human IgG1, kappa, L234A L235A, N297A, name in Kabat numbering)
heavy: B1 heavy with A105Y, A110D
chain: B1 chain
light: B1 light
notes: one-arm antibody (one Fab)
B14: CE115HA000 A102I one-arm antibody (antibody, human IgG1, kappa, L234A L235A, N297A, name in Kabat numbering)
heavy: B1 heavy with A110D, A111I
chain: B1 chain
light: B1 light
notes: one-arm antibody (one Fab)
B15: CE115HA000 A102P one-arm antibody (antibody, human IgG1, kappa, L234A L235A, N297A, name in Kabat numbering)
heavy: B1 heavy with A110D, A111P
chain: B1 chain
light: B1 light
notes: one-arm antibody (one Fab)
B16: CE115HA000 A102V one-arm antibody (antibody, human IgG1, kappa, L234A L235A, N297A, name in Kabat numbering)
heavy: B1 heavy with A110D, A111V
chain: B1 chain
light: B1 light
notes: one-arm antibody (one Fab)
B17: CE115HA000 A102Y one-arm antibody (antibody, human IgG1, kappa, L234A L235A, N297A, name in Kabat numbering)
heavy: B1 heavy with A110D, A111Y
chain: B1 chain
light: B1 light
notes: one-arm antibody (one Fab)
B18: CE115HA000 D72V one-arm antibody (antibody, human IgG1, kappa, L234A L235A, N297A, name in Kabat numbering)
heavy: B1 heavy with D75V, A110D
chain: B1 chain
light: B1 light
notes: one-arm antibody (one Fab)
B19: CE115HA000 D73N one-arm antibody (antibody, human IgG1, kappa, L234A L235A, N297A, name in Kabat numbering)
heavy: B1 heavy with D76N, A110D
chain: B1 chain
light: B1 light
notes: one-arm antibody (one Fab)
B20: CE115HA000 D73R one-arm antibody (antibody, human IgG1, kappa, L234A L235A, N297A, name in Kabat numbering)
heavy: B1 heavy with D76R, A110D
chain: B1 chain
light: B1 light
notes: one-arm antibody (one Fab)
B21: CE115HA000 D73T one-arm antibody (antibody, human IgG1, kappa, L234A L235A, N297A, name in Kabat numbering)
heavy: B1 heavy with D76T, A110D
chain: B1 chain
light: B1 light
notes: one-arm antibody (one Fab)
B22: CE115HA000 D101F one-arm antibody (antibody, human IgG1, kappa, L234A L235A, N297A, name in Kabat numbering)
heavy: B1 heavy with A110F
chain: B1 chain
light: B1 light
notes: one-arm antibody (one Fab)
B23: CE115HA000 W33H one-arm antibody (antibody, human IgG1, kappa, L234A L235A, N297A, name in Kabat numbering)
heavy: B1 heavy with W33H, A110D
chain: B1 chain
light: B1 light
notes: one-arm antibody
B24: CE115HA000 W33L one-arm antibody (antibody, human IgG1, kappa, L234A L235A, N297A, name in Kabat numbering)
heavy: B1 heavy with W33L, A110D
chain: B1 chain
light: B1 light
notes: one-arm antibody
B25: CE115HA000 W33Y one-arm antibody (antibody, human IgG1, kappa, L234A L235A, N297A, name in Kabat numbering)
heavy: B1 heavy with W33Y, A110D
chain: B1 chain
light: B1 light
notes: one-arm antibody
B26: CE115HA000 Y55D one-arm antibody (antibody, human IgG1, kappa, L234A L235A, N297A, name in Kabat numbering)
heavy: B1 heavy with Y58D, A110D
chain: B1 chain
light: B1 light
notes: one-arm antibody
B27: CE115HA000 Y55G one-arm antibody (antibody, human IgG1, kappa, L234A L235A, N297A, name in Kabat numbering)
heavy: B1 heavy with Y58G, A110D
chain: B1 chain
light: B1 light
notes: one-arm antibody
B28: CE115HA000 Y58A one-arm antibody (antibody, human IgG1, kappa, L234A L235A, N297A, name in Kabat numbering)
heavy: B1 heavy with Y61A, A110D
chain: B1 chain
light: B1 light
notes: one-arm antibody
B29: CE115HA000 Y58D one-arm antibody (antibody, human IgG1, kappa, L234A L235A, N297A, name in Kabat numbering)
heavy: B1 heavy with Y61D, A110D
chain: B1 chain
light: B1 light
notes: one-arm antibody
B30: CE115HA000 Y58K one-arm antibody (antibody, human IgG1, kappa, L234A L235A, N297A, name in Kabat numbering)
heavy: B1 heavy with Y61K, A110D
chain: B1 chain
light: B1 light
notes: one-arm antibody
B31: CE115HA000 Y59A one-arm antibody (antibody, human IgG1, kappa, L234A L235A, N297A, name in Kabat numbering)
heavy: B1 heavy with Y62A, A110D
chain: B1 chain
light: B1 light
notes: one-arm antibody
B32: CE115HA000 Y59D one-arm antibody (antibody, human IgG1, kappa, L234A L235A, N297A, name in Kabat numbering)
heavy: B1 heavy with Y62D, A110D
chain: B1 chain
light: B1 light
notes: one-arm antibody
B33: CE115HA000 Y59E one-arm antibody (antibody, human IgG1, kappa, L234A L235A, N297A, name in Kabat numbering)
heavy: B1 heavy with Y62E, A110D
chain: B1 chain
light: B1 light
notes: one-arm antibody

These binders were tested against T1, CD3 epsilon homodimer protein (UniProt P07766 23-126) (assay: SPR Biacore T200, CD3 epsilon homodimer on CM4 chip, antibody as analyte;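 also: Amine-coupled CD3 epsilon homodimer, run at 25 °C in HBS-EP+ buffer, ratio is bound amount of each single-residue H chain variant over that of the parent antibody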).
T1 construct: Immobilized on Sensor chip CM4 by amine coupling; construct not described; also called CD3 (CD3 epsilon)
T1 sequence (P07766 23-126): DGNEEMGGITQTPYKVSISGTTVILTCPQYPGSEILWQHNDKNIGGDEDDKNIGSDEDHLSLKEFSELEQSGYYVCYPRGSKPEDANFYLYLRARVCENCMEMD

| Binder | ratio of amounts bound (Y/X vs CE115HA000) |
| --- | --- |
| B1 | 1.26 |
| B2 | 0.8 |
| B3 | 0.87 |
| B4 | 0.76 |
| B5 | 0.66 |
| B6 | 0.28 |
| B7 | 1.43 |
| B8 | 1.48 |
| B9 | 1.13 |
| B10 | 0.91 |
| B11 | 0.82 |
| B12 | 0.84 |
| B13 | 1.59 |
| B14 | 1.48 |
| B15 | 0.14 |
| B16 | 1.43 |
| B17 | 0.91 |
| B18 | 1.43 |
| B19 | 0.94 |
| B20 | 1.04 |
| B21 | 0.63 |
| B22 | 0.75 |

What follows are binders tested against T2, CD3 epsilon homodimer protein (UniProt P07766 23-126) (assay: SPR Biacore T200, antibody over immobilised CD3e homodimer;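 also: CD3 epsilon homodimer amine-coupled on a CM4 chip, run at 25 °C in HBS-EP+, Z = bound amount of each single-residue H chain variant over that of the parent antibody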).
T2 construct: also called CD3 (CD3 epsilon)
T2 sequence (P07766 23-126): as above

| Binder | ratio of amounts bound (Z=Y/X vs CE115HA000) |
| --- | --- |
| B23 | 0.13 |
| B24 | 0.1 |
| B25 | 0.66 |
| B26 | 0.45 |
| B27 | 0.55 |
| B28 | 0.22 |
| B29 | 0.11 |
| B30 | 0.3 |
| B31 | 0.85 |
| B32 | 0.7 |
| B33 | 0.66 |
